In patent US20180298051A1:

What was measured:
Test in all cases: cell-based or functional assay
[1] = target: human LepR on Baf3 LepR cells (human) (UniProt P48357)
[2] = target: C-terminal HA tagged human Leptin receptor on LepR SIE-Bla cells (human) (UniProt P48357)
[3] = target: human FSHR on FSHR CRE-Bla cells (human) (UniProt P23945)
Sequence of human FSHR on FSHR CRE-Bla cells (human) (P23945 18-695): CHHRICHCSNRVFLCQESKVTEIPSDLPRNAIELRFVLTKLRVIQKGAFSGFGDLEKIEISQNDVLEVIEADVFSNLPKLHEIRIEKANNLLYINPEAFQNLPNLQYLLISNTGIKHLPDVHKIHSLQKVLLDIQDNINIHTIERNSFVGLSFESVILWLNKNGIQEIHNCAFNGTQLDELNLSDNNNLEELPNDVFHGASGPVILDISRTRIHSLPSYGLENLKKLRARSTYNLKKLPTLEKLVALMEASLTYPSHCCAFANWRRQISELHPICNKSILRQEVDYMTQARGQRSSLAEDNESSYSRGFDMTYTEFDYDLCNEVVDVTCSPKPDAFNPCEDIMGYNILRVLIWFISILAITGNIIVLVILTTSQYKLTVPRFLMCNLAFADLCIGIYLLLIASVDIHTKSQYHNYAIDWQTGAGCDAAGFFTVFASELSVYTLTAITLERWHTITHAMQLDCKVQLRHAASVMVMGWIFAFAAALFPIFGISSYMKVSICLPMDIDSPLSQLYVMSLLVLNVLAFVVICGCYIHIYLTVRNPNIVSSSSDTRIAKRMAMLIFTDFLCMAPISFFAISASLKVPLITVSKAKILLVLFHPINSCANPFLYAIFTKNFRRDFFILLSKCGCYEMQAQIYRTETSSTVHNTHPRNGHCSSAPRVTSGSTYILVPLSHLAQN

Sequence of C-terminal HA tagged human Leptin receptor on LepR SIE-Bla cells (human) (P48357 22-1165): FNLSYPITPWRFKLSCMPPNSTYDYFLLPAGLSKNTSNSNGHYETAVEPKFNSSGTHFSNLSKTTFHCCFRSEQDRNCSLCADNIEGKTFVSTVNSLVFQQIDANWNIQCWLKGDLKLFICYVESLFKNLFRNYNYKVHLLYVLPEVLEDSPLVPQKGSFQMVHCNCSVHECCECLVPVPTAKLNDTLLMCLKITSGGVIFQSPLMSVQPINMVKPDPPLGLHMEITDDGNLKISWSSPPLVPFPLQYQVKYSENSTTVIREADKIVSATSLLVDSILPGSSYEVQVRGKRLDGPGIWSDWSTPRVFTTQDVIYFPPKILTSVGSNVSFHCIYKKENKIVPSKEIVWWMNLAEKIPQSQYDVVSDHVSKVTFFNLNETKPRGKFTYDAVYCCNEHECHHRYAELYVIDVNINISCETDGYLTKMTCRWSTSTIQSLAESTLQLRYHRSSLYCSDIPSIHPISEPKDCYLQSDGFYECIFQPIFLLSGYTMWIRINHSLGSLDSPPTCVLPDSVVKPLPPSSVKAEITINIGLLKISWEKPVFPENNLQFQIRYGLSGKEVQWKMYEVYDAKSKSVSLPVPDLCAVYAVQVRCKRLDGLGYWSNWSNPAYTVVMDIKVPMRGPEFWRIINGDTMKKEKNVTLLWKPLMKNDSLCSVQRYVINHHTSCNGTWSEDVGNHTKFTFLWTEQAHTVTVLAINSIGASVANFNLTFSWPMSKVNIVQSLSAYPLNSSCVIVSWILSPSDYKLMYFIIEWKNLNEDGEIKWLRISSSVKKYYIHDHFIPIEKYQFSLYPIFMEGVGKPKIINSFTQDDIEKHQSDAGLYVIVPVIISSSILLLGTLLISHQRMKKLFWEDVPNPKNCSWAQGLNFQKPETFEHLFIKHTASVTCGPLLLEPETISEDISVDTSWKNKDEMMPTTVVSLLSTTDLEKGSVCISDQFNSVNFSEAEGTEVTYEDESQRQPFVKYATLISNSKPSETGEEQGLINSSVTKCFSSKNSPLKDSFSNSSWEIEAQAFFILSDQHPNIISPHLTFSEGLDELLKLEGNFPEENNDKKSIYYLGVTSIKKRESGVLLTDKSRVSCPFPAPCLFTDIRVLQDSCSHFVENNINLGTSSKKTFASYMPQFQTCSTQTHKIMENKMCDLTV
Sequence of human LepR on Baf3 LepR cells (human) (P48357 22-1165): as above

Row | Substance | EC50, proliferation assay using the Baf3 LepR cell line [1] [pM] | EC50, FRET assay using the beta-lactamase-based LepR SIE-Bla cell line [2] [pM] | response ratio in a fluorescence resonance energy transfer (FRET) assay, LepR SIE-Bla cells [2] | EC50, FRET assay using the beta-lactamase-based FSHR CRE-Bla cell line [3] [pM]
1 | recombinant human Leptin protein (from UniProt P41159 22-167) (ligand) | 310 | 313 | 8.5 | –
2 | single chain FSH (from UniProt P01225 19-129; P01215 25-116) (ligand) | – | – | – | 5.7
